Experimental findings from US20250250330A1 (REVOPSIS THERAPEUTICS, published 2025) are described below.

For assay [1], the target named is T1, rhVEGF-B_Peprotech (Peprotech_100-20B) (human, UniProt P49765-2 22-188).
T1 construct: Bought protein
T1 sequence (looked up): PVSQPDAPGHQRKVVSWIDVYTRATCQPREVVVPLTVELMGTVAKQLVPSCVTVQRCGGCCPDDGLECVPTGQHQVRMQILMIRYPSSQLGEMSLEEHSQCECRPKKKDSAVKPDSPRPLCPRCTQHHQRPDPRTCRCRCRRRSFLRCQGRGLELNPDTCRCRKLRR
Nature of the assay: ELISA; target coated at 1 ug/mL, anti-human IgG Fc-HRP detection. On the procedure: (§1) First, the binding to rhVEGF-B was tested in comparison with rhVEGF₁₆₅. rhVEGF-B or rhVEGF₁₆₅ was used to coat Corning 9017 medium binding plates at 1 μg/mL and […] per well. […] Donkey anti-human IgG Fcγ-HRP was used for detection. OD450 nm readings were measured by Victor 3.
A general note: An ELISA detects its analyte on a solid surface through an enzyme-linked reagent.

In assay [2] the target is T2, Recombinant human VEGF165 (Peprotech, Cat #100-20) (human, UniProt P15692-4 27-191).
T2 construct: Bought protein; also called rhVEGF165; rh VEGF165
Described as above. On the procedure: as §1

The target of assay [3] is T2, Recombinant human VEGF165 (Peprotech, …). The assay is described as above. On the procedure:
Third, the binding to rhPIGF-1 or rhPIGF-3 was tested in comparison with rhVEGF₁₆₅. Target proteins were used to coat Corning 9017 medium binding plates at 1 μg/mL and 100 μl per well. […] Donkey anti-human IgG Fcγ-HRP was used for detection. OD450 nm readings were measured by Victor 3.
This is another data set of the same source.

Assay [4] deals with T3, His-tagged recombinant human ANG-2 (AcroBiosystems, Cat #AN2-H52H4) (human, UniProt O15123 275-496).
T3 construct: also called rhANG-2; rhANG-2-His; not shown: His tag
T3 sequence (looked up): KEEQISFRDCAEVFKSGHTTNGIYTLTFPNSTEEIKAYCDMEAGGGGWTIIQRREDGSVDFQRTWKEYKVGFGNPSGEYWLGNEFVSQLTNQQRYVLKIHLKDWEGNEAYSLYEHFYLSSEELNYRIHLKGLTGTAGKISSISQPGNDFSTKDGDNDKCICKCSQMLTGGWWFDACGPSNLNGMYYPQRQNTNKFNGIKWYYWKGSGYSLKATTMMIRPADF
Nature of the assay: ELISA EC50 on rhANG-2, against Faricimab. The method, then:
Donkey anti-human IgG Fcγ-HRP (Jackson ImmunoResearch Laboratories, Cat #709-035-098) was used for detection and visualized by TMB substrate. OD450 nm readings were measured by Victor 3 with PerkinElmer 1420 Multilabel Counter.

Assay [5] has as its target T4, rpVEGF164 (porcine/pig; AssayGenie_KPRT0149) (Porcine/Pig, UniProt P49151 27-190).
T4 construct: Bought protein; also called Pig VEGF-A
T4 sequence (looked up): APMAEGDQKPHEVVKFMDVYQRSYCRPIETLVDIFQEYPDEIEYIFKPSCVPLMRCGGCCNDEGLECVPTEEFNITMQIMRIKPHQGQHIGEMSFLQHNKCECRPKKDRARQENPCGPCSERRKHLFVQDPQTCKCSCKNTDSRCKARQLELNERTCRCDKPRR
Nature of the assay: ELISA on coated pig VEGF-A.

For assay [6], the target named is T5, Recombinant human VEGF121 (Peprotech, Cat #100-20A) (human, UniProt P15692-9 27-147).
T5 construct: Bought protein; also called rhVEGF121; rh VEGF121
T5 sequence (looked up): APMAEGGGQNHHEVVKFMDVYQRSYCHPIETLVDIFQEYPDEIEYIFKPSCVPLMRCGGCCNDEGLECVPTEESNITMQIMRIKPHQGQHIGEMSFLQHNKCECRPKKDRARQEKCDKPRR
Nature of the assay: ELISA; rhVEGF121 coated at 1 ug/mL, anti-human IgG Fc-HRP detection (RO-101_Sample 1). The method, then: (§2) Donkey anti-human IgG Fcγ-HRP (Jackson ImmunoResearch Laboratories, Cat #709-035-098) was used for detection and visualized by TMB substrate. OD450 nm readings were measured by Victor 3 (PerkinElmer 1420 Multilabel Counter).

Assay [7] has as its target T3, His-tagged recombinant human ANG-2 …. Nature of the assay: ELISA on rhANG-2; biotinylated anti-VpreB antibody and streptavidin-HRP detection; SgG format; anti-VpreB detection. The method, then: SgG1 was diluted in blocking buffer at a starting concentration of 10 nM. Sab and scSv were diluted in blocking buffer at a starting concentration of 100 nM. They were then 1:3 serial diluted.

Assay [8] addresses T6, rdVEGF163 (canine/dog; R&D 1603-CV-010/CF) (Canine/Dog, UniProt Q9MYV3-3 27-190, limits assumed).
T6 construct: Bought protein; also called Dog VEGF-A
T6 sequence (looked up): T4 sequence (looked up) with E5G, D7E, Q8H, N99S
Nature of the assay: ELISA on coated dog VEGF-A.

For assay [9], the target named is T7, rhVEGF-D (AcroBio_VED-H5228) (human, UniProt O43915 89-205, limits assumed).
T7 construct: domain: PDGF domain; Bought protein; not shown: His tag
T7 sequence (looked up): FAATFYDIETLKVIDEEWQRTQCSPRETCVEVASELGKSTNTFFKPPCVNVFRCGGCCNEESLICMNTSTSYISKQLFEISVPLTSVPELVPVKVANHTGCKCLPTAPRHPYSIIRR
Nature of the assay: ELISA: rhVEGF-D_AcroBio coated at 1 ug/mL, RO-101_Sample 1 titrated, detected with anti-human IgG Fc-gamma-HRP. The method, then: Different target proteins were used to coat Corning 9017 medium binding plates at 1 μg/mL and 100 μl per well. Donkey anti-human IgG Fcγ-HRP was used for detection. OD450 nm readings were measured by Victor 3.

Assay [10] addresses T2, Recombinant human VEGF165 (Peprotech, …). Nature of the assay: ELISA; rhVEGF165 coated at 1 ug/mL, anti-human IgG Fc-HRP detection (RO-101_Sample 1). On the procedure: as §2

Numbering of substitutions follows the chain as printed. Bounds are passed on as bounds.

B1: RO-101 VEGF/ANG-2 bispecific surrobody (bispecific antibody, human IgG1, L234A L235A)
heavy 1: not shown
heavy 2: EVQLVESGGGLVKPGGSLRLSCAASGFTFSSYGMHWVRQAPGKGLEWVAGISADSGDKNYADSVKGRFTISRDNAKNSLYLQMNSLRAEDTAVYYCAKEFISWIYTFDYLDYWGQGTLVTVSSASTKGPSVFPLAPSSKSTSGGTAALGCLVKDYFPEPVTVSWNSGALTSGVHTFPAVLQSSGLYSLSSVVTVPSSSLGTQTYICNVNHKPSNTKVDKKVEPKSCDKTHTCPPCPAPEAAGGPSVFLFPPKPKDTLMISRTPEVTCVVVDVSHEDPEVKFNWYVDGVEVHNAKTKPREEQYNSTYRVVSVLTVLHQDWLNGKEYKCKVSNKALPAPIEKTISKAKGQPREPQVCTLPPSRDELTKNQVSLSCAVKGFYPSDIAVEWESNGQPENNYKTTPPVLDSDGSFFLVSKLTVDKSRWQQGNVFSCSVMHEALHNHYTQKSLSLSPG
light: QPVLHQPPAMSSALGTTIRLTCTLRNDHDIGVYSVYWYQQRPGHPPRFLLRYFSQSDKSQGPQVPPRFSGSKDVARNRGYLSISELQPEDEAMYYCAMGARSSVTHVFGSGTQLTVLSQPKATPSVTLFPPSSEELQANKATLVCLMNDFYPGILTVTWKADGTPITQGVEMTTPSKQSNNKYAASSYLSLTPEQWRSRRSYSCQVMHEGSTVEKTVAPAECS
notes: Format SgG1; also called Sample 1
The term EC50 denotes the concentration giving half of the maximal effect. In the case of B1, the half-maximal effective concentration (EC50) in [1] was above 100 nM; in assay [2], 0.0165 nM; in assay [3] it was 0.0162 nM; in assay [5] it was 0.0198 nM; in assay [6], 0.0146 nM; in assay [7], 0.0257 nM. Further, the figures for the EC50 in [8] and in assay [10] were 0.0237 nM and 0.0135 nM, respectively. For the same molecule, the “RO-101/Faricimab Fold” value in assay [4] worked out at 53 fold. The binding result in assay [9] is “no binding (tested: 100 nM (Log(nM) 2))”.
